Tests used:
[1] = target: CON6 gp140CF (artificial HIV-1 group M consensus)
[2] = target: CON6 gp120 (artificial HIV-1 group M consensus); test: ELISA endpoint titer (3 fold over background) on CON6 gp120

Substance	concentration at endpoint titer [1] [µg/mL]	concentration at endpoint titer [2] [µg/mL]
2F5 (antibody)	0.016	–
447 (antibody)	–	< 0.003
A32 (antibody)	–	< 0.125
IgG1b12 (antibody)	–	< 0.002
